# Measured values: patent US20230266303A1, “SYSTEM” (GTINVENT LIMITED, priority 2020, published 2023)
# “Also recorded” adds a separate entry of the source.
# B1: s1D12: monoclonal antibody binding tau epitope within residues 337 to 349 or 341 to 353 of SEQ ID NO: 1 (antibody)
# heavy: QVQLQESGPSLVKPSQTLSLTCTVSGFSLNNNAVGWVRQAPGKVPESLVGCSSDGTCYYNSALKSRLDITRDTSKNQISLSLSSVTTDDAAVYYCTRGHYSIYGYDYLGTIDYWGPGLLVTVSSAKTTAPSVYPLAPVCGDTTGSSVTLGCLVKGYFPEPVTLTWNSGSLSSGVHTFPAVLQSDLYTLSSSVTVTSSTWPSQSITCNVAHPASSTKVDKKIEPRGPTIKPCPPCKCPAPNLLGGPSVFIFPPKIKDVLMISLSPIVTCVVVDVSEDDPDVQISWFVNNVEVHTAQTQTHREDYNSTLRVVSALPIQHQDWMSGKEFKCKVNNKDLPAPIERTISKPKGSVRAPQVYVLPPPEEEMTKKQVTLTCMVTDFMPEDIYVEWTNNGKTELNYKNTEPVLDSDGSYFMYSKLRVEKKNWVERNSYSCSVVHEGLHNHHTTKSFSRTPGK
# light: QAVLTQPSSVSGSLGQRVSITCSGSSSNVGGGNSVGWYQHLPGSGLKTIIYDTNSRPSGVPDRFSGSRSGNTATLTINSLQAEDEGDYYCVTGDSTTHDDLVGSGTRLTVLGGQPKSSPSVTLFPPSSEELETNKATLVCTITDFYPGVVTVDWKVDGTPVTQGMETTQPSKQSNNKYMASSYLTLTARAWERHSSYSCQVTHEGHTVEKSLSRADCS
# Legend:
# Assay type in all cases: biochemical
# [1] = biological target: T1, dGAE (Homo sapiens, UniProt P10636); assay: Tau aggregation inhibition assay in vitro, TEM
# T1 construct: dGAE, corresponding to amino acid residues 297-391 using numbering from 2N4R tau; made in house
# Protocol: (§1) dGAE protein was diluted into 10 mM phosphate buffer, pH 7.4 (PB) with monoclonal antibody s1 D12 at a ratio of 4:1 protein:Ab (100 μM dGAE+25 μM s1D12 and 10 μM dGAE+2.5 μM s1D12) or 1:1 (25 μM dGAE+25 μM s1D12).
# (§2) As a positive control, dGAE was prepared at a final concentration of 10, 25 or 100 μM in 10 mM PB. Negative controls consisted of dGAE with a non-tau IgG antibody at a ratio of 4:1 (10 μM dGAE+2.5 μM anti-ovalbumin), or antibody alone (25 or 2.5 μM s1D12 and 2.5 μM anti-ovalbumin). Samples were agitated at 700 rpm at 37° C. for 3 days.
# Transmission electron microscopy (TEM), circular dichroism (CD) and Thioflavin S (ThS) assays were performed as detailed in Al-Hilaly et. al. (2018) J. Mol. Biol. 430, 4119-4131. Briefly, TEM grids were prepared by adding 4 μL of sample to a carbon-coated grid followed by a wash with milli-Q filtered water then staining twice with 2% uranyl acetate. Grids were air dried and then imaged using a JEOL electron microscope operating at 80 kV.
# [2] = biological target: T1, dGAE; assay: Tau aggregation inhibition assay in vitro, circular dichroism; details: 100 μM dGAE + 25 μM s1D12 (4:1)
# Protocol: as §1, §2
# (§3) For CD, 60 μL sample was placed in a 0.1 mm quartz cuvette and placed into a JASCO spectropolarimeter. 100 μL ThS in 20 mM MOPS buffer was added to 50 μL of each sample to a final concentration of 20 μM, mixed well, incubated at room temperature for 10 minutes then fluorescence intensity measured in a Cary Eclipse spectrophotometer using an excitation wavelength of 440 nm. Baseline readings from 10 mM PB were subtracted from CD and ThS measurements.
# [3] = biological target: T1, dGAE; assay: Tau aggregation inhibition assay in vitro, Thioflavin S fluorescence; details: 25 μM (1:1) and 100 μM (4:1) dGAE with s1D12
# Protocol: as §1, §2, §3
# T1 sequence (P10636 614-708): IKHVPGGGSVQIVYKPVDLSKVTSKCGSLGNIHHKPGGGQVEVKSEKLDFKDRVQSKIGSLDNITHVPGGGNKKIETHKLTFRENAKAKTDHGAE
molecule,measurement,setting,value
B1,overall effect on assembly of dGAE into fibrils,"[1]; collective finding of TEM, CD and ThS experiments",inhibits the assembly of dGAE into fibrils in vitro; also recorded: specifically inhibits the assembly of dGAE into fibrils
same,fibril formation of dGAE in presence of antibody (TEM),"[1]; dGAE:antibody 4:1 or 1:1 (anti-ovalbumin 4:1, 10 μM dGAE), 700 rpm, 37° C., 3 days",no fibril formation is observed; also recorded: no fibrils were present
same,"dGAE secondary structure in presence of antibody (CD, antibody spectrum subtracted)",[2],dGAE cannot assemble into 3-sheet rich fibrils
same,"dGAE secondary structure in presence of antibody (CD, antibody spectrum subtracted)",[2]; listed as s1 D12,dGAE has not assembled into fibrils
same,ThS emission peak at 483 nm of dGAE in presence of antibody,[3],this signal was abolished
same,ThS emission peak at 483 nm of dGAE in presence of antibody,[3]; listed as s1 D12,abolished
